3 substances from patent publication US20090220470A1 can be followed below.

Assay [1] concerns the target Mono-ubiquitin (Sigma Aldrich) (UniProt P0CG48). As to the kind of experiment: SPR (BIACORE 3000), GST-p62 UBA polypeptide captured on anti-GST chip, ubiquitin injected.
The target is the same in assay [2]. As to the kind of experiment: SPR (BIACORE 3000), GST-p62 UBA polypeptide captured on anti-GST antibody chip, ubiquitin injected. (In general: In SPR one partner is held on a chip, and binding of the other changes the refractive index at the surface.)
For assay [3], the target named is poly-ubiquitylated proteins (of cell lysates). As to the kind of experiment: cell-based or functional assay.
Assay [4] concerns the target K48 tetra-ubiquitin (Boston Biochem) (UniProt P0CG48). As to the kind of experiment: SPR (BiaCore 3000), dissociation followed over two hours (data not shown).
Assay [5] addresses K63 tetra-ubiquitin (Boston Biochem) (UniProt P0CG48). Described as above.
The target of assay [6] is K48 tetra-ubiquitin (Boston Biochem) (UniProt P0CG48). Put plainly: ratio of the literature Kd of the single UBA (Raasi et al.) to the SPR Kd of the TUBE.
Assay [7] deals with K63 tetra-ubiquitin (Boston Biochem) (UniProt P0CG48). The description is as above.
Assay [8] addresses Mono-ubiquitin (Sigma Aldrich) (UniProt P0CG48). As to the kind of experiment: SPR (BiaCore 3000), captured via GST on anti-GST chip, mono-ubiquitin injected, steady state.
For assay [9], the target named is K48 tetra-ubiquitin (Boston Biochem) (UniProt P0CG48). As to the kind of experiment: SPR (BiaCore 3000), dissociation phase fitted with a double exponential, first (rapid) phase.
The target of assay [10] is K63 tetra-ubiquitin (Boston Biochem) (UniProt P0CG48). Described as above.
Assay [11] addresses K48 tetra-ubiquitin (Boston Biochem) (UniProt P0CG48). As to the kind of experiment: SPR (BiaCore 3000), dissociation phase fitted with a double exponential, second (slow) phase.
For assay [12], the target named is K63 tetra-ubiquitin (Boston Biochem) (UniProt P0CG48). The assay is described as above.
Assay [13] addresses K48 tetra-ubiquitin (Boston Biochem) (UniProt P0CG48). As to the kind of experiment: SPR (BiaCore 3000), GST-TUBE captured on anti-GST chip at low density, tetra-ubiquitin injected, steady-state fit.
The target in assay [14] is K63 tetra-ubiquitin (Boston Biochem) (UniProt P0CG48). Described as above.
For assay [15], the target named is Mono-ubiquitin (Sigma Aldrich) (UniProt P0CG48). Put plainly: SPR (Biacore), GST fusion captured on anti-GST antibody chip (150-220 RU), mono-ubiquitin injected in a 2-fold dilution series, steady-state fit.

Chain of Ubiquilin1 TUBE (TUBE comprising 4 ubiquilin-1 UBA domains, GST fusion with His6 and SV5 tags) (designed binder) (chain, part): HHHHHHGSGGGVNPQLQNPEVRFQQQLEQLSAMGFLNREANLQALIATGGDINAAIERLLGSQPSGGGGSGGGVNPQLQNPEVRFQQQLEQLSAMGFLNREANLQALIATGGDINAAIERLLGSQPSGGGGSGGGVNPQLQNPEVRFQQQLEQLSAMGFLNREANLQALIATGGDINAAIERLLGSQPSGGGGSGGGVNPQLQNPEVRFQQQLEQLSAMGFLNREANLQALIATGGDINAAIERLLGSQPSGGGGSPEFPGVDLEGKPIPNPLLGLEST
Chain of hHR23A TUBE (TUBE comprising 4 hHR23a UBA-1 domains, GST fusion with His6 and SV5 tags) (designed binder) (chain, part): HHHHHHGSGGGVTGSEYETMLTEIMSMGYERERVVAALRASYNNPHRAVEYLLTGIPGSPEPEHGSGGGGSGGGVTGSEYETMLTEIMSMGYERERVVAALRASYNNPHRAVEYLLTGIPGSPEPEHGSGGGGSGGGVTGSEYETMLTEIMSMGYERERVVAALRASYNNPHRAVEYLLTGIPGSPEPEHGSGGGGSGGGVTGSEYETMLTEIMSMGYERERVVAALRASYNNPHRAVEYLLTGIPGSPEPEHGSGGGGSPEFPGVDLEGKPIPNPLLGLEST

“p62×4 (four domains of the p62-UBA fused to GST; TUBE comprising 4 p62 UBA domains) (designed binder)” returned a fold more binding (against one UBA copy) in assay [1] of 6 fold. For the same substance, in assay [2], the N (stoichiometry of Ubiquitin-UBA interaction) came out at 5.8.

As a reminder, the half-life is how long it takes for the measured level to halve. A high value points to slow loss. As a reminder, the koff is the first-order rate constant of dissociation. Usually Kd stands for the constant that tells how readily two partners part at equilibrium. A lower Kd goes with a tighter complex. On to “Ubiquilin1 TUBE (TUBE comprising 4 ubiquilin-1 UBA domains, GST fusion with His6 and SV5 tags) (designed binder)”, for which, in assay [3], the lowest TUBE concentration at which protection from de-ubiquitylation was detectable is 0.17 µM. The half-life in assay [4] and in assay [5] was over 5 h each time. Also, the Kd(UBA)/Kd(TUBE) is 84 fold in assay [6] and 833 fold in assay [7]. For the same substance, in assay [8], the binding stoichiometry (molar ratio ubiquitin:TUBE) (ubiquitin per TUBE) was found to be 4. Besides, the koff in [9] is 0.03 s⁻¹; in [10] it was 0.03 s⁻¹; in assay [11], 0.0004 s⁻¹; in assay [12], 0.0004 s⁻¹. Moreover, the t1/2 (first dissociation phase) in assay [9] and in [10] was 25 s each time. Further, the Kd in [13] amounted to 14.3 nM; in assay [14], 0.6 nM; in assay [15] it was 30200 nM.

“hHR23A TUBE (TUBE comprising 4 hHR23a UBA-1 domains, GST fusion with His6 and SV5 tags) (designed binder)” yielded a lowest TUBE concentration at which protection from de-ubiquitylation was detectable in assay [3] of 0.17 µM. The half-life in assay [4] and in assay [5] was over 5 h throughout. The results for the Kd(UBA)/Kd(TUBE) in assay [6] and in assay [7] were 663 fold and 943 fold, respectively. Also, the binding stoichiometry (molar ratio ubiquitin:TUBE) (ubiquitin per TUBE) in [8] was 4. For the same substance, the koff is 0.03 s⁻¹ in assay [9], 0.03 s⁻¹ in assay [10], 0.0004 s⁻¹ in assay [11] and 0.0004 s⁻¹ in [12]. Moreover, the t1/2 (first dissociation phase) in assay [9] and in assay [10] was 25 s in each case. In addition, the values for the Kd in [13], in assay [14] and in assay [15] were 9.35 nM, 4.88 nM and 65800 nM, respectively.
